Measured values published in the supplement of paper PMC10724198.
± gives the standard deviation of the averaged measurements.

tested on: Saccharomyces cerevisiae; assay: protein stability index of tFT-peptide fusion (C-terminal peptide) (PSI (0-1 scale)); higher = more stable (slower turnover); details: genetic background: das1 deletion; temperature: 30 C
Description: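 MPS profiling in S. cerevisiae of the tFT-X12 degron library: putative degron peptides plus stable controls, 12 aa, fused to the C-terminus of a sfGFP-mCherry timer. Cells are FACS-sorted into 8 mCherry/sfGFP bins and deep-sequenced. PSI runs from 0 (unstable) to 1 (stable). Backgrounds are wild type, das1Δ and doa10Δ at 30 °C, and wild type, das1Δ, cdc34-1 and cdc53-1 at 37 °C; 2-3 technical replicates each.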
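Further: PSI is a weighted mean of sequencing reads over stability bins, variants kept only with over 10 reads, mCherry proximal and sfGFP distal, peptide attached via GGGS linker.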

| Sequence | protein stability index |
| --- | --- |
| KALFPGLLLCAF | 0.239 ± 0.02 |
| KLLDHFVKIRVY | 0.225 ± 0.044 |
| KLRELQVRQQLS | 0.635 ± 0.03 |
| LAEHIFLVLDHG | 0.428 ± 0.0085 |
| LAISTIQMFKRI | 0.624 ± 0.017 |
| LAKPTVRKIICV | 0.301 ± 0.049 |
| LAPSRNRSVWLV | 0.649 ± 0.016 |
| LASFCSVCIFIS | 0.238 ± 0.017 |
| LASWVVFIWFLW | 0.278 ± 0.018 |
| LCFLVALASMLF | 0.472 ± 0.036 |
| LCFVCLWGYLGV | 0.322 ± 0.034 |
| LCFVFVLGFFAF | 0.349 ± 0.031 |
| LCTCFLVLLLWC | 0.339 ± 0.024 |
| LCVFRFFLFFFL | 0.327 ± 0.032 |
| LDFPPLRLILRL | 0.584 ± 0.035 |
| LEPFTGYTVIVM | 0.232 ± 0.045 |
| LFDVLFVFSFIF | 0.413 ± 0.017 |
| LFFASFLLIGPF | 0.375 ± 0.039 |
| LFFFFLPHLILL | 0.321 ± 0.046 |
| LFHPPSFSLRLF | 0.678 ± 0.019 |
| LFHVWSLRFFWL | 0.557 ± 0.018 |
| LFLFVGCSVRRL | 0.392 ± 0.034 |
| LFLLYVLVSLFV | 0.267 ± 0.048 |
| LFLVVVVRAGGF | 0.214 ± 0.03 |
| LFPVASLCLART | 0.527 ± 0.036 |
| LFRFVFLLFGFW | 0.435 ± 0.015 |

| Sequence | protein stability index |
| --- | --- |
| LFRNIFLFVFLI | 0.362 ± 0.021 |
| LFWTWVLVGVSV | 0.192 ± 0.022 |
| LGATYSVQLYVS | 0.539 ± 0.038 |
| LGIPKLLCFVCT | 0.304 ± 0.023 |
| LGLCFFFYSLHS | 0.411 ± 0.041 |
| LGNVTDVMHRLS | 0.6481 ± 0.0036 |
| LGVVLFCFRFCR | 0.391 ± 0.022 |
| LHFHIYLIISPF | 0.2 ± 0.02 |
| LHLLFLPFVVCL | 0.216 ± 0.037 |
| LIFFFCSWVFRF | 0.402 ± 0.061 |
| LIFLSISFISSL | 0.168 ± 0.036 |
| LILFMLLSFLTT | 0.294 ± 0.028 |
| LIRVLRVLRHSS | 0.638 ± 0.018 |
| LLAVIVWIVPPA | 0.233 ± 0.023 |
| LLCRVSRTRILC | 0.426 ± 0.021 |
| LLDIYFILLVWF | 0.267 ± 0.023 |
| LLFLWVLFLPFA | 0.346 ± 0.036 |
| LLFPRVLVLCFS | 0.124 ± 0.037 |
| LLILIVNLRRIG | 0.36 ± 0.04 |
| LLISPFLFLLVC | 0.0907 ± 0.02 |
| LLLLGVSLFLVR | 0.265 ± 0.019 |
| LLLPSAPFLFLL | 0.307 ± 0.041 |
| LLMLWWARVFSG | 0.298 ± 0.015 |
| LLVFWRLWWSLS | 0.251 ± 0.034 |
| LLVKFTFLIIFT | 0.191 ± 0.011 |
| LLVLPFFSLSRF | 0.774 ± 0.0081 |

| Sequence | protein stability index |
| --- | --- |
| LLVVFSCFTFMF | 0.277 ± 0.032 |
| LMLGARVSRRIH | 0.673 ± 0.026 |
| LNALSHCRAICS | 0.604 ± 0.023 |
| LPASLSLWPLLC | 0.537 ± 0.019 |
| LPPHLPFPLSAA | 0.638 ± 0.0075 |
| LPSPLLFLPALF | 0.667 ± 0.025 |
| LQSVAFERGGPD | 0.649 ± 0.0084 |
| LRSVVFFCRTLL | 0.623 ± 0.014 |
| LSFFDYVLLQIA | 0.462 ± 0.032 |
| LSLGVGSDAEGG | 0.64 ± 0.02 |
| LSYRFVFRFLLF | 0.525 ± 0.013 |
| LVCLFFLSSLFF | 0.495 ± 0.046 |
| LVCLVASCVRWL | 0.359 ± 0.037 |
| LVGVLLAVWSVV | 0.249 ± 0.039 |
| LVLGLYGVWLVV | 0.254 ± 0.026 |
| LVMYRSALIRGH | 0.445 ± 0.0092 |
| LVSWAWIWIFVF | 0.253 ± 0.039 |
| LVSYHKMAISSF | 0.436 ± 0.022 |
| LWWTRVILYGYI | 0.456 ± 0.027 |
| LYCGLIFFLRGV | 0.516 ± 0.018 |
| LYFLLGSLVFVF | 0.273 ± 0.035 |
| MALAVRVVTCGA | 0.228 ± 0.036 |
| MIQPRLANIIIS | 0.683 ± 0.018 |
| MLVLFCLCYILG | 0.231 ± 0.025 |
| MSHVCICRRLML | 0.609 ± 0.025 |
| NFVVYHVAIRVP | 0.17 ± 0.017 |

same assay, conditions: genetic background: das1 deletion; temperature: 37 C

| Sequence | protein stability index |
| --- | --- |
| KALFPGLLLCAF | 0.292 ± 0.012 |
| KLLDHFVKIRVY | 0.416 ± 0.0072 |
| KLRELQVRQQLS | 0.7272 ± 0.0049 |
| LAEHIFLVLDHG | 0.499 ± 0.0062 |
| LAISTIQMFKRI | 0.718 ± 0.018 |
| LAKPTVRKIICV | 0.4672 ± 0.0038 |
| LAPSRNRSVWLV | 0.74 ± 0.0098 |
| LASFCSVCIFIS | 0.429 ± 0.0071 |
| LASWVVFIWFLW | 0.41 ± 0.01 |
| LCFLVALASMLF | 0.549 ± 0.018 |
| LCFVCLWGYLGV | 0.528 ± 0.023 |
| LCFVFVLGFFAF | 0.488 ± 0.0085 |
| LCTCFLVLLLWC | 0.46 ± 0.01 |
| LCVFRFFLFFFL | 0.461 ± 0.012 |
| LDFPPLRLILRL | 0.6464 ± 0.0014 |
| LEPFTGYTVIVM | 0.331 ± 0.021 |
| LFDVLFVFSFIF | 0.535 ± 0.015 |
| LFFASFLLIGPF | 0.499 ± 0.014 |
| LFFFFLPHLILL | 0.4803 ± 0.004 |
| LFHPPSFSLRLF | 0.748 ± 0.023 |
| LFHVWSLRFFWL | 0.6837 ± 0.0039 |
| LFLFVGCSVRRL | 0.599 ± 0.021 |
| LFLLYVLVSLFV | 0.369 ± 0.019 |
| LFLVVVVRAGGF | 0.4065 ± 0.0012 |
| LFPVASLCLART | 0.663 ± 0.0042 |
| LFRFVFLLFGFW | 0.566 ± 0.032 |

| Sequence | protein stability index |
| --- | --- |
| LFRNIFLFVFLI | 0.468 ± 0.012 |
| LFWTWVLVGVSV | 0.283 ± 0.013 |
| LGATYSVQLYVS | 0.621 ± 0.013 |
| LGIPKLLCFVCT | 0.465 ± 0.02 |
| LGLCFFFYSLHS | 0.586 ± 0.013 |
| LGNVTDVMHRLS | 0.734 ± 0.023 |
| LGVVLFCFRFCR | 0.598 ± 0.022 |
| LHFHIYLIISPF | 0.311 ± 0.0072 |
| LHLLFLPFVVCL | 0.348 ± 0.027 |
| LIFFFCSWVFRF | 0.464 ± 0.031 |
| LIFLSISFISSL | 0.316 ± 0.028 |
| LILFMLLSFLTT | 0.419 ± 0.018 |
| LIRVLRVLRHSS | 0.7225 ± 0.0011 |
| LLAVIVWIVPPA | 0.423 ± 0.0079 |
| LLCRVSRTRILC | 0.58 ± 0.0099 |
| LLDIYFILLVWF | 0.399 ± 0.024 |
| LLFLWVLFLPFA | 0.5234 ± 0.0037 |
| LLFPRVLVLCFS | 0.154 ± 0.0093 |
| LLILIVNLRRIG | 0.607 ± 0.028 |
| LLISPFLFLLVC | 0.0981 ± 0.022 |
| LLLLGVSLFLVR | 0.454 ± 0.0081 |
| LLLPSAPFLFLL | 0.435 ± 0.029 |
| LLMLWWARVFSG | 0.408 ± 0.0072 |
| LLVFWRLWWSLS | 0.429 ± 0.028 |
| LLVKFTFLIIFT | 0.31 ± 0.019 |
| LLVLPFFSLSRF | 0.8734 ± 0.0026 |

| Sequence | protein stability index |
| --- | --- |
| LLVVFSCFTFMF | 0.476 ± 0.0058 |
| LMLGARVSRRIH | 0.707 ± 0.026 |
| LNALSHCRAICS | 0.692 ± 0.015 |
| LPASLSLWPLLC | 0.668 ± 0.012 |
| LPPHLPFPLSAA | 0.724 ± 0.019 |
| LPSPLLFLPALF | 0.778 ± 0.055 |
| LQSVAFERGGPD | 0.729 ± 0.015 |
| LRSVVFFCRTLL | 0.731 ± 0.013 |
| LSFFDYVLLQIA | 0.635 ± 0.0073 |
| LSLGVGSDAEGG | 0.743 ± 0.031 |
| LSYRFVFRFLLF | 0.573 ± 0.014 |
| LVCLFFLSSLFF | 0.602 ± 0.022 |
| LVCLVASCVRWL | 0.5664 ± 0.0041 |
| LVGVLLAVWSVV | 0.412 ± 0.0087 |
| LVLGLYGVWLVV | 0.4104 ± 0.0027 |
| LVMYRSALIRGH | 0.5693 ± 0.0033 |
| LVSWAWIWIFVF | 0.417 ± 0.0085 |
| LVSYHKMAISSF | 0.626 ± 0.047 |
| LWWTRVILYGYI | 0.5496 ± 0.0039 |
| LYCGLIFFLRGV | 0.6475 ± 0.0026 |
| LYFLLGSLVFVF | 0.506 ± 0.014 |
| MALAVRVVTCGA | 0.363 ± 0.014 |
| MIQPRLANIIIS | 0.833 ± 0.015 |
| MLVLFCLCYILG | 0.377 ± 0.0043 |
| MSHVCICRRLML | 0.712 ± 0.032 |
| NFVVYHVAIRVP | 0.2466 ± 0.0024 |
